In patent publication US5861254:

Key:
[1] = biological target: T1, L-selectin-IgG1 Fc fusion (LS-Rg) (Homo sapiens) (UniProt P14151); assay: SPR; details: 2'-F pyrimidines, 2'-OH purines, SHMCK buffer with Ca and Mg
T1 sequence: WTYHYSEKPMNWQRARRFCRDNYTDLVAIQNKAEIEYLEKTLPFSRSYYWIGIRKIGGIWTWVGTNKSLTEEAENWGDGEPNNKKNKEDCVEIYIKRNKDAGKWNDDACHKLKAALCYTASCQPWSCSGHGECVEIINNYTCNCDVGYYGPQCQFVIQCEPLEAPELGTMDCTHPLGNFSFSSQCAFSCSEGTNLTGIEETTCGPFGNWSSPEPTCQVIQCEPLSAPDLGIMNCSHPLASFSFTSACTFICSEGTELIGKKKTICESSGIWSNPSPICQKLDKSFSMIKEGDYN

[2] = biological target: T1, L-selectin-IgG1 Fc fusion (LS-Rg) (Homo sapiens); assay: filter; details: 2'-F pyrimidines, 2'-OH purines

For “UCGGGCGGAAUUCAGGNNNNNNNNNNNNNNNNNNNNNNNNNNNNNNCCGCAUCGUCCUCCC [Flow Cell SELEX Rnd 2 pool]”, the Kd ([1]; ka 1.7e4, kd 1.8e-3) was 110 nM.

“UCGGGCGGAAUUCAGGNNNNNNNNNNNNNNNNNNNNNNNNNNNNNNCCGCAUCGUCCUCCC [Flow Cell SELEX Rnd 3 pool]” showed a Kd ([2]; nitrocellulose filter binding, pool plateau below 20% bound in final mixtures) of 0.16 nM and a Kd ([1]; ka 4.9e4, kd 1.9e-3) of 39 nM.

“UCGGGCGGAAUUCAGGNNNNNNNNNNNNNNNNNNNNNNNNNNNNNNCCGCAUCGUCCUCCC [Flow Cell SELEX Rnd 4 pool]” gave a Kd ([1]; ka 7.5e4, kd 1.8e-3) of 24 nM.

Sequence “UCGGGCGGAAUUCAGGNNNNNNNNNNNNNNNNNNNNNNNNNNNNNNCCGCAUCGUCCUCCC [Flow Cell SELEX Rnd 5 pool]” has a Kd ([2]; only slightly improved over round 3 (160 pM), plateau below 20% bound) of under 1 nM and a Kd ([1]; ka 3.7e5, kd 1.5e-3) of 4.1 nM.
